Experimental data: the supplement of paper PMC10065799, “High-throughput profiling of sequence recognition by tyrosine kinases and SH2 domains using bacterial peptide display” (eLife, 2023)

Assays:
[1] = target: c-Src SH2; assay: SH2 binding enrichment of the phosphorylated peptide, bacterial display (enrichment ratio); higher = better substrate or ligand; peptides without Tyr show the background
[2] = target: SHP2-C SH2; assay: as above
[3] = target: Grb2 SH2 (UniProt P62993); assay: as above
[4] = target: EPHB1 (UniProt P54762); assay: phosphorylation enrichment, bacterial display (enrichment ratio); higher = better substrate or ligand; peptides without Tyr show the background
[5] = system: Fer (mouse); assay: as above
[6] = target: Jak2 (UniProt O60674); assay: as above
[7] = system: AncSZ; assay: as above
[8] = target: Fyn (UniProt P06241); assay: as above
Fyn, sequence (P06241 whole entry, looked up): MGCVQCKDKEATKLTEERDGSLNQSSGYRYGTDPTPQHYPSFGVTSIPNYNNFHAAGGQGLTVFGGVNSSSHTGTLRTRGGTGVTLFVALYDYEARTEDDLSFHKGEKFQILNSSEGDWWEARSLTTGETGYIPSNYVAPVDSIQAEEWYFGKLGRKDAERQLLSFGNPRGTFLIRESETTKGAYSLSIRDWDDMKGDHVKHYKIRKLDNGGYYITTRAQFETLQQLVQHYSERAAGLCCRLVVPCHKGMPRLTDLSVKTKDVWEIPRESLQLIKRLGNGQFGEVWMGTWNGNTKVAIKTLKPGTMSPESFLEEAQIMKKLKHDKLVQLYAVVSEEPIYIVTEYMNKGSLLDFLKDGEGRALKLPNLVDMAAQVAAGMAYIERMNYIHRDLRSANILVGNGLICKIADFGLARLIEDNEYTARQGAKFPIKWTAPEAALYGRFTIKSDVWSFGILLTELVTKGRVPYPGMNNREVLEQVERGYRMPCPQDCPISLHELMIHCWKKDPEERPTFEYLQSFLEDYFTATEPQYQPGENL

[9] = target: EPHB2 (UniProt P29323); assay: as above
EPHB2, sequence (P29323 whole entry, looked up): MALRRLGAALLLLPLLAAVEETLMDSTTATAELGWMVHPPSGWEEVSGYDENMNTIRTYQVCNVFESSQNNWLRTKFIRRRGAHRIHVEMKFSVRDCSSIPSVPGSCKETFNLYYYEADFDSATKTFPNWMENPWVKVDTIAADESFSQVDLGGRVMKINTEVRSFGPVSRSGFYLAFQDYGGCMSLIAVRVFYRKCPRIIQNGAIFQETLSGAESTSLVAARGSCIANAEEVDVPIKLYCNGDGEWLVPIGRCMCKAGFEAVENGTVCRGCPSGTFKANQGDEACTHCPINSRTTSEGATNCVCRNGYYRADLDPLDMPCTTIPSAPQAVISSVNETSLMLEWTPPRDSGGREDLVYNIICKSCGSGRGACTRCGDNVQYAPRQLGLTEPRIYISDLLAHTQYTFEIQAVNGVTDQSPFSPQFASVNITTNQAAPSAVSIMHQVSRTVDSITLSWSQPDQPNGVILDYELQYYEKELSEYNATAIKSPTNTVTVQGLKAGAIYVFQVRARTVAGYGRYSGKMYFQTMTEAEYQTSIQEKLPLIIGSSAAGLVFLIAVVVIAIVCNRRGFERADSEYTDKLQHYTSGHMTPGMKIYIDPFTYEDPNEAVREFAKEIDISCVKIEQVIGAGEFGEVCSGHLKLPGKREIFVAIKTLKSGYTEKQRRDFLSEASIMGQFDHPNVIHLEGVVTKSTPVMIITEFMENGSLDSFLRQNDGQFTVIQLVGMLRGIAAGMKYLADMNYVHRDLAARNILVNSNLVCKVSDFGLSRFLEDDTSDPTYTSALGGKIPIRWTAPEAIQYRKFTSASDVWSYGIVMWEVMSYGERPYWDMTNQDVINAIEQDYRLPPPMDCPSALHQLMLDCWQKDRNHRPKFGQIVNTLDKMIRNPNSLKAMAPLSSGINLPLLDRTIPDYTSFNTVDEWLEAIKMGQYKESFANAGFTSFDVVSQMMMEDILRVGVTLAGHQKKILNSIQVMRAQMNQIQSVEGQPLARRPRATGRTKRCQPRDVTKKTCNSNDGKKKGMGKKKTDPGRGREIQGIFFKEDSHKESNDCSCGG

[10] = target: MERTK (UniProt Q12866); assay: as above
[11] = target: Hck (UniProt P08631); assay: as above
Hck, sequence (P08631 whole entry, looked up): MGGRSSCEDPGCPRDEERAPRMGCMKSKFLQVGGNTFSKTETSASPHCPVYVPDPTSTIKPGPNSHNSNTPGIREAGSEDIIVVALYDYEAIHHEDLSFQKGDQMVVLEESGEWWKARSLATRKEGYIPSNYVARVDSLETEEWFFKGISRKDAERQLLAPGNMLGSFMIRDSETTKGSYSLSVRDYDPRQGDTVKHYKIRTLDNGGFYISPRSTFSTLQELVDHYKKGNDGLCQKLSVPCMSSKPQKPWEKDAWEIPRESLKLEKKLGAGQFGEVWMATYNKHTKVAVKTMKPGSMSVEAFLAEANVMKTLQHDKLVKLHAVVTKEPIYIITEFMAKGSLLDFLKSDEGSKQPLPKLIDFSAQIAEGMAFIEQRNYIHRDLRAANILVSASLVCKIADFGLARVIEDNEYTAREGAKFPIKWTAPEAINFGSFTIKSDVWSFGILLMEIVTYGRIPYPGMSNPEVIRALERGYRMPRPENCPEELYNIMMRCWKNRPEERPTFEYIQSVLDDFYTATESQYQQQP

[12] = system: c-Src; assay: as above
[13] = target: FGFR1 (UniProt P11362); assay: as above
FGFR1, sequence (P11362 whole entry, looked up): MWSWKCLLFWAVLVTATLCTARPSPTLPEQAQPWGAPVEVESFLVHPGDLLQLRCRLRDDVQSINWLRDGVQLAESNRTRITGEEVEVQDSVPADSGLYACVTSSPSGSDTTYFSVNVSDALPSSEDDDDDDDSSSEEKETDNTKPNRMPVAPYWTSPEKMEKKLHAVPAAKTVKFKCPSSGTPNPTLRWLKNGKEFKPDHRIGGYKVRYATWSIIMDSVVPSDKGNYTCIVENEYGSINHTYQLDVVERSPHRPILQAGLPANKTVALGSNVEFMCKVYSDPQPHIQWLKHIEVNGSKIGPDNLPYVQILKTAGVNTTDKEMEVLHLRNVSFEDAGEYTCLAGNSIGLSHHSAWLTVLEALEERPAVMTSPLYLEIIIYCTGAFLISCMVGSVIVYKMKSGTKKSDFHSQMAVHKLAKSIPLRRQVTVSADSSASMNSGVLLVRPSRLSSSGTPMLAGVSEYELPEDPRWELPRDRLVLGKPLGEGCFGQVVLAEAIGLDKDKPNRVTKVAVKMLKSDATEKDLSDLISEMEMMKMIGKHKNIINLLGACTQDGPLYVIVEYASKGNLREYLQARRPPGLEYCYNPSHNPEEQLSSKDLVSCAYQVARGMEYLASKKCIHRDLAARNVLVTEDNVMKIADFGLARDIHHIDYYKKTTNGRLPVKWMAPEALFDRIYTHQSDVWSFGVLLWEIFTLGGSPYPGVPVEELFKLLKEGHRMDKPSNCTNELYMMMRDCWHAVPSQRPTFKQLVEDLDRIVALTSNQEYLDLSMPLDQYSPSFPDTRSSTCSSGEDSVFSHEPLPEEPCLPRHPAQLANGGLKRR

[14] = system: c-Abl (mouse); assay: as above
[15] = target: Fes (UniProt P07332); assay: as above
Fes, sequence (P07332 whole entry, looked up): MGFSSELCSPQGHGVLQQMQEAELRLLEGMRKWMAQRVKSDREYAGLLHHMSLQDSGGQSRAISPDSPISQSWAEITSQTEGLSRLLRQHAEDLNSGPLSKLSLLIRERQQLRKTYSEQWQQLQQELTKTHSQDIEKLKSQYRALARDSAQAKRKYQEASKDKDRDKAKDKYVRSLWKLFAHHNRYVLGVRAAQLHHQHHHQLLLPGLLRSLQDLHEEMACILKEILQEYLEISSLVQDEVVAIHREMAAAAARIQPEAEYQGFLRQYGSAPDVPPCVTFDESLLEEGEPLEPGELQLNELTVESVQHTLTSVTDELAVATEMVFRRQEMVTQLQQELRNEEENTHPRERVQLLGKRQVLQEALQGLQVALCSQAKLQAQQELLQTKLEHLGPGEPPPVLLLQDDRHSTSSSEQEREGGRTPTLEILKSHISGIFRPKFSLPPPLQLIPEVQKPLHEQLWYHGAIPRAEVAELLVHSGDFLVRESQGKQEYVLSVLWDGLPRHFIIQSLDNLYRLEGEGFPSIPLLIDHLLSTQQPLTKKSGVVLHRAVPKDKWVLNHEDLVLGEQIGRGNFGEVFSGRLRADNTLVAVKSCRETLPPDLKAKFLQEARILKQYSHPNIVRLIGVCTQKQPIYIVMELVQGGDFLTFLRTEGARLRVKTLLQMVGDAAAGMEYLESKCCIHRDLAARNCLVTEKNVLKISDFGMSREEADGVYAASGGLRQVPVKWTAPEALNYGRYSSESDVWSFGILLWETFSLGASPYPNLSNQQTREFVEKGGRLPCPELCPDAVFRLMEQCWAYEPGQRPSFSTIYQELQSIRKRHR

[16] = target: FGFR3 (UniProt P22607); assay: as above
FGFR3, sequence (P22607 whole entry, looked up, the tested form may be a part): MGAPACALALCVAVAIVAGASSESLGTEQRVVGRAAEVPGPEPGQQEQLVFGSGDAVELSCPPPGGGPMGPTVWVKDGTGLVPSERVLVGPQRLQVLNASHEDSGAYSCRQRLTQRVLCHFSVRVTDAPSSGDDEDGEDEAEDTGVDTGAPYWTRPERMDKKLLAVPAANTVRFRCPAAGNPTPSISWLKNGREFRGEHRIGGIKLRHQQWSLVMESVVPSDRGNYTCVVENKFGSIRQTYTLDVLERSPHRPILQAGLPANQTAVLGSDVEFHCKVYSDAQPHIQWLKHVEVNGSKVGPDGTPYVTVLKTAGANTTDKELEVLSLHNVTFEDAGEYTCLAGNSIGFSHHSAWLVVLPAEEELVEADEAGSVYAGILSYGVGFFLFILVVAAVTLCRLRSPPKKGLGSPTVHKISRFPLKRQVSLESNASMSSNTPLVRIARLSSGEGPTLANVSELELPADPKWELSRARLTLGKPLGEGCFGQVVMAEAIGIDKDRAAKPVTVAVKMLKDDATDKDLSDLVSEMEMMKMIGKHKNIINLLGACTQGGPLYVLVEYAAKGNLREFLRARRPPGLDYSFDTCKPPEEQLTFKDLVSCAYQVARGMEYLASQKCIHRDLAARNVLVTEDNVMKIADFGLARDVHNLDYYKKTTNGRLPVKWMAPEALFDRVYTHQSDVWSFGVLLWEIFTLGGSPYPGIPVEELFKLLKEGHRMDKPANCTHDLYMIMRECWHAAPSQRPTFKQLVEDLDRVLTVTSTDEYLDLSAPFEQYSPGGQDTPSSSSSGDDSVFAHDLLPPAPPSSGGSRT
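For SH2 binding enrichment of the phosphorylated peptide, bacterial display in this document: peptide library displayed on the E. coli surface as eCPX fusions, selected cells deep-sequenced, score is each peptide's frequency after selection divided by its frequency in the input.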
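For phosphorylation enrichment, bacterial display in this document: 11-residue human phosphosite peptides and single-mutation variants displayed on the E. coli surface, counted by deep sequencing, each peptide's frequency after selection divided by its frequency in the unselected input library; frequency after pTyr selection over input frequency; kinase dosed for 20-30% of maximal phosphorylation in three min.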

SH2 binding enrichment [1]	SH2 binding enrichment [2]	SH2 binding enrichment [3]	Sequence	phosphorylation enrichment [4]	phosphorylation enrichment [5]	phosphorylation enrichment [6]	phosphorylation enrichment [7]	phosphorylation enrichment [8]	phosphorylation enrichment [9]	phosphorylation enrichment [10]	phosphorylation enrichment [11]	phosphorylation enrichment [12]	phosphorylation enrichment [13]	phosphorylation enrichment [14]	phosphorylation enrichment [15]	phosphorylation enrichment [16]
1.24	1.23	1.5	LFSINYLHFGD [KDM4C_Y201_E206D_YF]	1.19	0.813	1.56	1.32	0.561	0.538	0.783	0.71	0.612	1.07	0.968	1.56	1.22
1.13	1.27	1.71	RHLQEYQDLLN [GFAP_Y349]	0.513	0.389	0.565	0.737	0.616	0.45	0.392	0.468	0.399	0.418	0.417	0.807	0.477
0.625	0.551	1.74	VNFGAYINDFK [GLB1_Y488_YF]	0.545	0.393	0.83	0.909	0.498	0.568	0.352	0.441	0.369	0.459	0.558	0.997	0.621
0.471	0.944	0.667	IGEGTYGQVYK [CDK13_Y716]	0.889	0.813	0.822	0.605	13.5	1.59	0.714	11.8	9.38	0.553	0.593	0.822	0.508
0.466	0.595	0.792	SKLTIYDARPS [MTM1_Y277]	0.629	0.484	0.655	0.779	2.4	0.737	0.825	7.23	2.05	0.606	0.593	1.17	0.751

Further lines, the sequence ahead of its results:

Sequence	SH2 binding enrichment [1]	SH2 binding enrichment [2]	SH2 binding enrichment [3]	phosphorylation enrichment [4]	phosphorylation enrichment [5]	phosphorylation enrichment [6]	phosphorylation enrichment [7]	phosphorylation enrichment [8]	phosphorylation enrichment [9]	phosphorylation enrichment [10]	phosphorylation enrichment [11]	phosphorylation enrichment [12]	phosphorylation enrichment [13]	phosphorylation enrichment [14]	phosphorylation enrichment [15]	phosphorylation enrichment [16]
PMFTKYGNSLL [RPGRIP1L_Y196]	0.749	0.679	0.952	1.07	1.44	1.44	1.45	0.558	0.643	0.708	0.636	0.951	0.645	1.49	1.73	0.912
IKRIDYEFVEM [ADA_Y84_A83D]	0.5	0.56	0.967	6.08	1.82	0.932	0.89	0.469	3.22	0.375	0.477	0.404	1.02	0.622	1.18	0.742
PATYTYDEYKK [COL8A2_Y648]	1.48	0.799	0.551	0.745	0.558	0.868	1.43	1.67	0.883	1.02	1.55	3.07	0.749	1.38	1.3	0.728
MKKMHYVDPDH [ST3GAL5_Y99]	0.548	0.672	0.9	0.32	0.32	0.392	0.512	0.364	0.311	0.332	0.367	0.402	0.338	0.41	0.513	0.357
